# According to the supplement of paper PMC12764529:
# ± gives the half width of the 95% confidence interval.
# Test: folding stability dG unfold (combined trypsin and chymotrypsin); higher = more stable
# Outline: (§1)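 Bayesian fitting of sequencing counts gave K50 for each design. Unfolding free energy followed by setting this against a sequence-predicted unfolded-state K50 and a shared folded-state K50, either per protease or with trypsin and chymotrypsin combined. The designs, under 80 residues and lacking cysteine, were digested in a PA-tagged cDNA display format at 11 threefold-diluted protease concentrations and without protease, and only those with AlphaFold2 dimer inter-PAE above 15 were kept.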
row,Sequence,folding stability dG unfold
1,SMVTVETRPEEVLPDAEGRLRRVTVVITFPDGKTLTVDMEFPPDVSDEEVEERLRALVEELGVESIELLGSA [r9_1203_JUSTAS],2.99 ± 0.17 kcal/mol
2,SAGGSAVPKLPTGVEVEPLAVIDPETASPEEIRALLAEHPGPLLVRPSSTGEWRVVPAEELLALLGSAGGSA [r15_904_JUSTAS],1.1 ± 0.071 kcal/mol
3,SAGGSAGGSAGAVFTLPDGMKITIEKNEDGTYTITIETDGKTETIEIKPGETIEIEIFPPSAGGSAGGSAGG [r11_164_TrROS_Hall],2.91 ± 0.077 kcal/mol
4,SAGGSKIQISIWEDPENDYTWVTIWFPDDEELVDFFVEDIADLGVKKVETERFPDNGWRRITILIRSAGGSA [r2_358_TrROS],2.97 ± 0.12 kcal/mol
5,SAGGSAGGDYVKIEIWIPPGMPDAEELVDKMSNYGFEIKKIERDPKNNYVRVTIVFQIPPGAIKSAGGSAGG [r6_604_TrROS],2.26 ± 0.27 kcal/mol
6,SAGGAPLSSSEEVEALLKEGGAEFVSKTSVTITEPGVPVTVNVYTIRVKDPSSDKWTLVEVPSSLLSSAGGS [r16_271_JUSTAS],0.409 ± 0.15 kcal/mol
7,SAGPKTITIWFRSPEWIRKLAKELGFEIKKVKRTGDYWSVEFTREGGKNIEIHIPDDALKELGFDLDDISAG [r5_12_TrROS],2.25 ± 0.057 kcal/mol
8,SAGGSPEIPKDYEVIEIDAETLPDGSVLIPIIVRDPIIPYYLKMYYRSIPTRWEPISFELIHPDELSAGGSA [r2_371_TrMRF],1.45 ± 0.057 kcal/mol
9,SAPPRISIPWDPESGNWRVKVYNPKDPGKKREIDIPMKELQAKHGKPMSPNEIAQWLVKKGIDYVEIYPSAG [r14_809_TrROS],0.409 ± 0.2 kcal/mol
10,SAGGSAGGMVEEIIEEFKKKGYNPEVEVRKTSPETTVVTLKLPDKEVIVEVKPLTPEELEEILRSAGGSAGG [r6_786_JUSTAS],0.824 ± 0.15 kcal/mol
11,SAGGSAGGSAMETVYIPKEEVEKDPEKLEEIKEKLKKELEEKGKKVEFKEDPNGGYTITVESAGGSAGGSAG [r3_75_JUSTAS],0.663 ± 0.13 kcal/mol

# Test: folding stability dG unfold from chymotrypsin proteolysis; higher = more stable
# Outline: as §1
row,Sequence,folding stability dG unfold
1,SAGGSSSLLEGLPGVVEVTVTTSLSVRPLSPEAARANPGQADRTVPLPRTTVTVTVEFPVSPAGILSAGGSA [r2_404_JUSTAS],1.15 ± 0.067 kcal/mol
2,SAGGSAGGGMMLTLSSQTTQTSYDPSGLSTTLSLTTNPLGGTTVVTTTTVPGTGEVSVTTTPSSSAGGSAGG [r6_977_JUSTAS],0.508 ± 0.065 kcal/mol
3,SAGGSAGGKNNETRRDPNNGNTYTRTGGKWEMEPVPPPIEIVPWPIWDPNGQDLELMWRVSINLSAGGSAGG [r6_313_TrROS],0.497 ± 0.49 kcal/mol
4,SAGGKEVYKVEIEVRLVKVPPGATVTLEEENGELTLTVTAPPGEEVLVIRIKVEKVKLPKPEKKKKKKSAGG [r13_804_TrROS_Hall],3.45 ± 0.18 kcal/mol
5,SAGGSAGGSAGPVRTIEILFPFDPGESLEFEIRIPGNGRKIKVSIEPYPNGWMRIKITVYSAGGSAGGSAGG [r17_131_TrROS],5.68 ± 0.26 kcal/mol
6,SAGGSAGGSAGGMEIEFEKAKFEIEEIDPEKGKIKVKFPGLEKEFEIEFDKKGKIVKISGSAGGSAGGSAGG [r7_553_TrMRF],0.959 ± 0.036 kcal/mol
7,SAGGSAGGSAGGMIIEKKTVEKLPDGTVKVTVSIITVNDDGKTETIKTETKIIPLSELLGSAGGSAGGSAGG [r7_521_JUSTAS],2.25 ± 0.1 kcal/mol
8,SAGDLLKNLPPEIVEVEEVKTLPDGTKYFLVKVKKDGKERVFVIELDKNGKIVKIEEMSKEEAEKLLKKSAG [r5_73_TrROS_Hall],3.74 ± 0.097 kcal/mol
9,SAMTPEELAARLAEALRREAEEAGLEIVDVRVEYDEETDTVTVEVVVRNKETGELVTRRVEIRSLEELLSAG [r14_409_TrROS_Hall],3.23 ± 0.059 kcal/mol
10,SAGGSAGGPETIPLRFGEEEVLLVLSPEDPDRFLAYFPAEGRVYLYRLLPEGLEFLREVPAEELSAGGSAGG [r6_915_TrMRF],2.03 ± 0.13 kcal/mol
11,SAGGMVYVVRLRDEDGTEYTALVEEFDGIYRVRLFDEDGELVEEREFESVEEAIDALLAEGYEVEVYPSAGG [r13_315_TrMRF],4.881 ± 0.035 kcal/mol
12,SAGGSAKKPKIKIKIKITNENGEKIEIEIEAETEEEALEAAKKLAEELAKKPNIKEVKIEITEIEPSAGGSA [r15_698_TrROS_Hall],2.19 ± 0.1 kcal/mol
13,SAGGSAGGSAGGPEKGKWKLVLVTMTIPLPPGASIPIPNGVWIYYTDGKIEIWFLMWVPDSAGGSAGGSAGG [r7_506_TrROS],5.07 ± 0.11 kcal/mol
14,SAGGSAGKITIPARVKITLTPPNGPTVTFDAIITRVEDNSIELILGNVPITIPPNAKNVTITSVEGSAGGSA [r15_510_TrMRF],1.53 ± 0.022 kcal/mol
15,PPGYRPIEIEIPMKVESIEEAKEEVLNFAHELAEAFPNITDINVEVDKIDPNNGYIFAKITIYVGDKTITIS [r1_52_TrROS],2.04 ± 0.081 kcal/mol
16,SAGGSAGGSAGDFDIKTVKNPPGTLMIVMPDNGWIQQIKFDPKNGKFKIDEIKWIPLDDISAGGSAGGSAGG [r11_352_TrROS],0.602 ± 0.066 kcal/mol
17,SAGGSAMKIELENAKILDIKPTPDGKKVIFIELPSGKIIAVYEDNKVAVRSKKDPSVKPEDADPVFSAGGSA [r15_692_TrMRF],1.17 ± 0.046 kcal/mol
18,SAGGSLRGVLFDPEGGRVYVLEYDPALGSFRVRPFPVPPVLPISREAAAEILRRELGLPREVVERLLASAGG [r13_824_TrMRF],3.438 ± 0.033 kcal/mol
19,SAGGSAGSLSPIGEHPYTLPDGSRITVPIYRDPATGEIVVEVETETEEEDISEKAEEYAEKVREALSAGGSA [r15_529_JUSTAS],-0.571 ± 0.45 kcal/mol
20,SAGGSPDPNQKPVTVRVEIMIMRPDPNGKWEMRPIEFEMTIGDVEEFLEELEKEPGYMIMVDIEIYSAGGSA [r2_270_TrROS],3.97 ± 0.25 kcal/mol
21,SAGGSAGGEPPPVVITVTVRNPATGETVKATAVLNPDGTLQVTVTRPDGSKQTFTATISAEALKSAGGSAGG [r6_588_TrROS_Hall],3.86 ± 0.15 kcal/mol
